One data set has as its target T1, trypsin (Bos taurus, UniProt P00760).
T1 construct: purchased Boehringer Mannheim USA
T1 sequence (P00760 24-246): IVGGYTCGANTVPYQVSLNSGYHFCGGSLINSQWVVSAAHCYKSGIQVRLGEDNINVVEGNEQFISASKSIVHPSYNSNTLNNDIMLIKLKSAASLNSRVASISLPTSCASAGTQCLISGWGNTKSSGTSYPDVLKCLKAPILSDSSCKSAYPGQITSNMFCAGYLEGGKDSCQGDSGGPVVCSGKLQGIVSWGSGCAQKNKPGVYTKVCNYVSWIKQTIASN
The data set can be described thus: Treatment of Product R with trypsin, SDS-PAGE on a 16% gel. Also on record: key: “−” represents no substantial alteration of the stainable bands; “+” represents substantial alteration of the stainable bands. To be noted: 250 μg/ml trypsin, 25° C., 19 hours. It is filed as physicochemical. On the procedure:
(§1) The biochemical properties of the peptides: Some biochemical properties of the silverstainable peptide components of Product R are analyzed using various catabolic enzymes, as described below:
The treatment with trypsin (Boehringer Mannheim USA): Trypsin is a serine protease, which specifically cleaves peptide bonds of lysine and arginine at the C-terminal at pH 7.5-9.0. A Product R sample is incubated in a reaction buffer having 100 mM Tris-HCl, pH 8.0, 0.1% SDS and 250 μg/ml of sequencing grade trypsin at 25° C. for 19 hours and then subject to SDS-PAGE on a 16% gel. While serum proteins will be broken down to peptides smaller than 4.3 KDa under such reaction conditions, none of the silver stained components of Product R are affected by trypsin.
(§2) A summary of the above described treatments by catabolic enzymes is provided in the following TABLE III, and the results of the treatment are shown in FIG. 5, wherein “−” represents no substantial alteration of the stainable bands and “+” represents substantial alteration of the stainable bands.

In the next data set the test system is pronase from S. griseus. The data set is described as follows: Treatment of Product R with pronase, SDS-PAGE on a 16% gel. It is filed as physicochemical. Details: key: “−” represents no substantial alteration of the stainable bands; “+” represents substantial alteration of the stainable bands. Conditions: 2 mg/ml pronase, 40° C., 75 minutes. On the procedure:
as §1
The treatment with pronase (Boehringer Mannlheim. USA): Pronase is a non-specific protease, acts on both native and denatured proteins. It breaks down virtually all proteins into their individual amino acids. The preparation contains various types of endo-peptidases such as srine and metalloproteases, exo-peptidases such as carboypepsidases, neutral protease and neutral and alkaline phosphatases. A Product R sample is incubated in a reaction buffer containing 100 mM Tris-HCl, pH 7.4; 10 mM CaCl2; 0.1% SDS and 2 mg/ml of pronase from S. griseus at 40° C. for 75 minutes and then subject to SDS-PAGE on a 16% gel. All silver stained components disappear after such treatment of pronase.
as §2

For data set [1], the target named is T2, bovine pancreatic Ribonuclease A (Bos taurus, UniProt P61823).
T2 construct: purchased ICN Biochemicals, USA
T2 sequence (P61823 27-150): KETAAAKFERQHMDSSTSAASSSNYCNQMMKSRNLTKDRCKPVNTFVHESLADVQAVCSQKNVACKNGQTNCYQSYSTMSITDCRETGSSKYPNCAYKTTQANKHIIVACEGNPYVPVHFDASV
The data set can be described thus: Treatment of Product R with ribonuclease A, SDS-PAGE on a 16% gel. It is filed as physicochemical. Details: key: “−” represents no substantial alteration of the stainable bands; “+” represents substantial alteration of the stainable bands. To be noted: 37° C., about 1 hour. The procedure: as §1
The treatment with ribonuclease A (ICN Biochemicals, USA): Ribonuclease A is a pyrimidine specific endoribonuclease that acts on single stranded RNA. A Product R sample is incubated in a reaction buffer containing 10 mM Tris-HCl, pH 7.4, 3 mM MgCl2, and I mg/ml of bovine pancreatic Ribonuclease A at 37° C. for about 1 hour and subject to SDS-PAGE on a 16% gel. […] The resistance to ribonuclease A excludes the possibility of the presence of a RNA fragment attached to the peptide.
as §2

In data set [2] the test system is MCP-1 secretion by U937 cells. The data set is described as follows: MCP-1 secretion by cultured U937 cells, ELISA. The data set is classed as cell-based, human. Conditions: for production of monocyte chemotactic protein 1 (MCP-1) in U937 cells: general statement; for up-regulation of MCP-1 secretion compared with Product R: peptide solutions 2 mg/ml, equimolar mixture 4 mg/ml, final concentration 10% in culture media, FIG. 20. The procedure: Ammonium sulfate precipitation of Product U peptides: Product U samples are lyophilized and re-dissolved in 20% of original sample volume in water (5X concentrated). Ammonium sulfate crystals are added to the solution to reach 60% ammonium sulfate saturation (390 mg/ml solution). Gentle mixing solubilizes crystals. Protein precipitates appear after 30 mm to 1 hr incubation on ice and is centrifuged at 16,000×g for 30 min. at […]. The pellet is dissolved in 5% of original sample volume in water. The solution is desalted by gel filtration chromatography through a column of BioGel P-2. The column is eluted with 0.1X phosphate buffered saline (PBS). Only protein containing fractions are pooled and lyophilized.
Separation and isolation of two major neptide of Product R by gel ruhranon chromatography: A BioGel P-10 column (1.6 cm×52 cm) was equilibrated with 0.1X concentration of PBS. Two ml of 2X concentrated Product R was applied to the column, which was eluted with the same buffer at a flow rate of 25 mI/hr. Four mm. fractions were collected. All protein-containing fractions are analyzed by Sodium dodecyl sulfate polyacrilamide gel electrophoresis (SDS-PAGE). Fraction, containing primarily peptide A and peptide B are pooled separately and lyophilized. Peptide A pool contains very little contamination of the other peptide, however, the peptide B pool is highly enriched but still contains peptide A as a major contaminant. A reasonable estimate of peptide purity in the pools is >90% for peptide A and >75% for peptide B.
U937 cell culture: The U937 human hystiocytic lymphoma cell line was purchased from the American Type Culture Collection. […]
Product R or isolated peptide treatment: Cells (1.0×10^5/ml) are cultured in growth medium containing Product R, isolated purified peptide solution, mixed peptides solution or Dulbecco's PBS for 2 days. Following centrifugation, the culture supernatants are analyzed using chemokine ELISA kits. […]
Measurement of secreted IL-8 and MCP-1: The concentrations of IL-8 and MCP-1 in the culture supernatants are assayed by ELISA, using human IL-S ELISA kits (Endogen. Inc.) and Quantikine human MCP-1 ELISA kits (R&D Systems, Inc.), respectively, according to manufacturer's instructions (with slight modifications for the MCP-1 ELISA). […] Absorbances are measured on a PowerWave 200 Microplate Scanning Spectrophotometer. Dilutions of the standard protein supplied by each manufacturer are utilized to generate a four-parameter logistic fit standard curve, and the concentration of chemokine in each supernatant is determined by extrapolation.
In general terms: In an ELISA, binding on a coated surface is turned into a signal by an enzyme label.

Entries after “also recorded” stand apart in the source; their conditions may differ. No end group written: not given here.

As to “KVLPVPQKAVPYPQRDMPIQAFLLYQEPVLG [Peptide-A, 31-amino-acid long peptide derived from bovine beta-casein, constituent of Product R]”, in the data set with trypsin, the “Sensitivity of the Peptide Components of Product R (SDS-PAGE): Trypsin (250 μg/ml)” value is reported as “−”. The “Sensitivity of the Peptide Components of Product R (SDS-PAGE): Pronase (2 mg/ml)” value in the data set on pronase from S. griseus is “+”. In data set [1], the “Sensitivity of the Peptide Components of Product R (SDS-PAGE): Ribonuclease A (1 mg/ml)” value is given as “−”. Further, in data set [2], the “production of monocyte chemotactic protein 1 (MCP-1) in U937 cells” value is “capable of inducing the production” and the “up-regulation of MCP-1 secretion compared with Product R” value is given as “failed to elicit a response same as that of Product R”.
Take “GEIPDAGGRIVDYYVGFSDSV (not fully specified (residue 18)) [Peptide-B, 21-amino acid peptide linked at serine 18 through a diphosphodiester group to the 3′-end of an adenylyl (3′-5′) adenosine moiety]”: the “Sensitivity of the Peptide Components of Product R (SDS-PAGE): Trypsin (250 μg/ml)” value with trypsin was “−”. In addition, the “Sensitivity of the Peptide Components of Product R (SDS-PAGE): Pronase (2 mg/ml)” value with pronase from S. griseus is reported as “+”. For the same sequence, the “Sensitivity of the Peptide Components of Product R (SDS-PAGE): Ribonuclease A (1 mg/ml)” value in data set [1] was “−”. The “production of monocyte chemotactic protein 1 (MCP-1) in U937 cells” value in data set [2] is on record as “capable of inducing the production; also recorded: contributes more to the activity than peptide-A”. In data set [2] (listed as peptide-B), the “up-regulation of MCP-1 secretion compared with Product R” value is listed as “failed to elicit a response same as that of Product R; also recorded: slightly more active than peptide A; also recorded: induces higher levels of secretion of IL-8 or MCP-1 than peptide-A”.
